Ends that are not written are not given here. * marks the point of attachment. Biotin = O=C1N[C@H]2[C@H](CS[C@H]2CCCCC(=O)*)N1
T1: Non-sense coating peptide LLARDFEKNY-K-biotin
T1 construct: also called non-sense biotinylated peptide
T1 peptide: LLARDFEKNYK(Biotin)

B1: C4-aa^1355 monoclonal antibody (antibody, V domains shown)
VH: QVTLKESGPGILQPSQTLSLTCSFSGFSLTTYNIGVGWIRQSSGKGLEWLAHIWYNDIKYYNTALKSRLTISKDTSNNQVFLKIASVVTADTATYYCARLRPDSFDYWGQGTTLTVSS
VL: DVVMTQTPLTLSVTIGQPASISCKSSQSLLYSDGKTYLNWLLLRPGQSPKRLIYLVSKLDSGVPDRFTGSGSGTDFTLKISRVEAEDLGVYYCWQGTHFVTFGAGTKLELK
notes: It was SULFO-TAG labelled in the ECLIA; also called the monoclonal antibody
B2: Selection peptide MGNTGPTGAV (peptide)
peptide: MGNTGPTGAV
notes: also called target peptide

Experiments:
[1] = biological target: B1; test: competitive C4-aa^1355 ECLIA (peptide in solution against the biotinylated coating peptide)
Procedure: The target sequence was used as the selection peptide ([…] (SEQ ID No. 1)). The immunogenic peptide ([…]-GGC-KLH) was generated by covalently linking the selection peptide to Keyhole Limpet Hemocyanin (KLH) carrier protein with addition of glycine and cysteine residues in between to ensure right linking. A biotinylated peptide ([…]-K-biotin) was used as a coating peptide. The specificity of the antibody was tested by including an elongated peptide ([…] (SEQ ID No. 7)), a truncated peptide ([…] (SEQ ID No. 3)), a non-sense selection peptide ([…] (SEQ ID No. 18)) and a non-sense coating peptide ([…]-K-biotin). To test for potential cross-reactivity to other ECM proteins with similar sequences, three peptides with one amino acid mismatch at either position one ([…] (SEQ ID No. 6)), three ([…] (SEQ ID No. 4)) or four ([…] (SEQ ID No. 5)) from the N-terminal were included in the specificity test. Antibody specificity was calculated as percentage of signal inhibition of two-fold diluted peptides.
During assay development, an optimal incubation buffer, time, temperature and concentrations of antibody and coating peptide were determined and the finalized competitive C4-aa¹³⁵⁵ ECLIA protocol was as follows: A MSD GOLD 96-well streptavidin pre-coated plate (Meso Scale Discovery, cat. no. L15SA-1) was incubated with 150 μl/well blocking buffer (10 mM phosphate-buffered saline (PBS) with bovine serum albumin (BSA) (5% w/v) and bronidox (0.36% v/v), 8 g/L NaCl, pH 7.4) for 60 minutes at 20° C. with shaking (300 rpm) in darkness. The plate was coated with 25 μl/well biotinylated coating peptide dissolved in assay buffer (50 mM PBS with BSA (1% w/v), Tween-20 (0.1% w/v) and bronidox (0.36% v/v), 8 g/L NaCl, pH 7.4) to a concentration at 2 ng/ml and incubated for 60 minutes at 20° C. with shaking (750 rpm) in darkness. Next, 25 μl/well selection peptide, assay controls or pre-diluted serum/plasma sample (1:2) were added followed by immediately addition of 25 μl/well of SULFO-TAG (MSD GOLD SULFO-TAG NHS-Ester Conjugation, Meso Scale Discovery, cat. no. R31AA-1) labelled monoclonal antibody diluted in assay buffer to a final concentration at 25 ng/ml and the plate incubated 20 hours at 4° C. with shaking (300 rpm) in darkness.

[2] = biological target: B2; test: preliminary competitive ELISA, biotinylated coating peptide on streptavidin plates
Procedure: Female Balb/C mice of 6-7 weeks of age were immunized subcutaneously with 200 μl emulsified antigen containing 100 μg immunogenic peptide ([…]-GGC-KLH) with Stimune Immunogenic adjuvant (Thermo fisher, cat. no. 7925000) repeatedly every second week until stable titer levels were obtained. The mouse with the highest antibody titer rested for four weeks and was then boosted intraperitoneally with immunogenic peptide. After three days, splenocytes were isolated and fused with murine SP2/0 myeloma cells to produce hybridoma cells as previously described (17). The hybridoma cells were cultured in 96-well microtiter plates and limited dilution was used to secure monoclonal growth. Supernatants from the monoclonal antibody producing hybridoma cells were screened for reactivity against the selection peptide and human serum samples in a preliminary competitive ELISA using biotinylated coating peptide on streptavidin-coated microtiter plates (Roche, cat. no. 11940279). The clone with the best reactivity towards the selection peptide was purified using protein-G-columns according to the manufacturer's instructions (GE Healthcare Life Sciences, cat. no. 17-0404-01).

[3] = biological target: T2, Recombinant type IV collagen alpha2 chain, undigested (without protease) (UniProt P08572 184-1712); test: competitive C4-aa^1355 ECLIA on the collagen sample
T2 construct: Bought recombinant protein; also called non-digested type IV collagen; type IV collagen α2 chain
Procedure: (§1) During assay development, an optimal incubation buffer, time, temperature and concentrations of antibody and coating peptide were determined and the finalized competitive C4-aa¹³⁵⁵ ECLIA protocol was as follows: A MSD GOLD 96-well streptavidin pre-coated plate (Meso Scale Discovery, cat. no. L15SA-1) was incubated with 150 μl/well blocking buffer (10 mM phosphate-buffered saline (PBS) with bovine serum albumin (BSA) (5% w/v) and bronidox (0.36% v/v), 8 g/L NaCl, pH 7.4) for 60 minutes at 20° C. with shaking (300 rpm) in darkness. […] Finally, 150 μl/well of MSD GOLD Read Buffer (Meso Scale Discovery, cat. no. R92TG-2) was added and the plate was read immediately within 2 minutes in a Sector Imager 6000 (Meso Scale Discovery). SULFO-TAG enabled light emission when electricity was applied, and the light emission data was analyzed using the MSD Discovery Workbench 4.0 software. The analyte concentration was calculated using a 4-parametric curve fit model.
To confirm that the C4-aa¹³⁵⁵ antibody/assay recognized a protease generated type IV collagen neo-epitope, C4-aa¹³⁵⁵ was measured in non-digested, MMP-9 digested and GzB digested type IV collagen.

[4] = biological target: T1, Non-sense coating peptide …; test: ECLIA with the non-sense coating peptide on the streptavidin plate
Procedure: The target sequence was used as the selection peptide ([…] (SEQ ID No. 1)). The immunogenic peptide ([…]-GGC-KLH) was generated by covalently linking the selection peptide to Keyhole Limpet Hemocyanin (KLH) carrier protein with addition of glycine and cysteine residues in between to ensure right linking. A biotinylated peptide ([…]-K-biotin) was used as a coating peptide. The specificity of the antibody was tested by including an elongated peptide ([…] (SEQ ID No. 7)), a truncated peptide ([…] (SEQ ID No. 3)), a non-sense selection peptide ([…] (SEQ ID No. 18)) and a non-sense coating peptide ([…]-K-biotin). […] Antibody specificity was calculated as percentage of signal inhibition of two-fold diluted peptides.
During assay development, an optimal incubation buffer, time, temperature and concentrations of antibody and coating peptide were determined and the finalized competitive C4-aa¹³⁵⁵ ECLIA protocol was as follows: A MSD GOLD 96-well streptavidin pre-coated plate (Meso Scale Discovery, cat. no. L15SA-1) was incubated with 150 μl/well blocking buffer (10 mM phosphate-buffered saline (PBS) with bovine serum albumin (BSA) (5% w/v) and bronidox (0.36% v/v), 8 g/L NaCl, pH 7.4) for 60 minutes at 20° C. with shaking (300 rpm) in darkness. […]

[5] = biological target: B1; test: competitive C4-aa^1355 ECLIA, peptide in solution against the biotinylated coating peptide
Procedure: as §1, with “darkness. The plate was coated with 25 μl/well biotinylated coating peptide dissolved in assay buffer (50 mM PBS with BSA (1% w/v), Tween-20 (0.1% w/v) and bronidox (0.36% v/v), 8 g/L NaCl, pH 7.4) to a concentration at 2 ng/ml and incubated for 60 minutes at 20° C. with shaking (750 rpm) in darkness.” for “darkness.”
Target sequence in this assay (VL, as listed by the source): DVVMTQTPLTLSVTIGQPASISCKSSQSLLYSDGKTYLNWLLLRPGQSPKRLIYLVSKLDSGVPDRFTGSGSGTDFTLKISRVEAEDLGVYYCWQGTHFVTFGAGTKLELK

T2 sequence (P08572 184-1712): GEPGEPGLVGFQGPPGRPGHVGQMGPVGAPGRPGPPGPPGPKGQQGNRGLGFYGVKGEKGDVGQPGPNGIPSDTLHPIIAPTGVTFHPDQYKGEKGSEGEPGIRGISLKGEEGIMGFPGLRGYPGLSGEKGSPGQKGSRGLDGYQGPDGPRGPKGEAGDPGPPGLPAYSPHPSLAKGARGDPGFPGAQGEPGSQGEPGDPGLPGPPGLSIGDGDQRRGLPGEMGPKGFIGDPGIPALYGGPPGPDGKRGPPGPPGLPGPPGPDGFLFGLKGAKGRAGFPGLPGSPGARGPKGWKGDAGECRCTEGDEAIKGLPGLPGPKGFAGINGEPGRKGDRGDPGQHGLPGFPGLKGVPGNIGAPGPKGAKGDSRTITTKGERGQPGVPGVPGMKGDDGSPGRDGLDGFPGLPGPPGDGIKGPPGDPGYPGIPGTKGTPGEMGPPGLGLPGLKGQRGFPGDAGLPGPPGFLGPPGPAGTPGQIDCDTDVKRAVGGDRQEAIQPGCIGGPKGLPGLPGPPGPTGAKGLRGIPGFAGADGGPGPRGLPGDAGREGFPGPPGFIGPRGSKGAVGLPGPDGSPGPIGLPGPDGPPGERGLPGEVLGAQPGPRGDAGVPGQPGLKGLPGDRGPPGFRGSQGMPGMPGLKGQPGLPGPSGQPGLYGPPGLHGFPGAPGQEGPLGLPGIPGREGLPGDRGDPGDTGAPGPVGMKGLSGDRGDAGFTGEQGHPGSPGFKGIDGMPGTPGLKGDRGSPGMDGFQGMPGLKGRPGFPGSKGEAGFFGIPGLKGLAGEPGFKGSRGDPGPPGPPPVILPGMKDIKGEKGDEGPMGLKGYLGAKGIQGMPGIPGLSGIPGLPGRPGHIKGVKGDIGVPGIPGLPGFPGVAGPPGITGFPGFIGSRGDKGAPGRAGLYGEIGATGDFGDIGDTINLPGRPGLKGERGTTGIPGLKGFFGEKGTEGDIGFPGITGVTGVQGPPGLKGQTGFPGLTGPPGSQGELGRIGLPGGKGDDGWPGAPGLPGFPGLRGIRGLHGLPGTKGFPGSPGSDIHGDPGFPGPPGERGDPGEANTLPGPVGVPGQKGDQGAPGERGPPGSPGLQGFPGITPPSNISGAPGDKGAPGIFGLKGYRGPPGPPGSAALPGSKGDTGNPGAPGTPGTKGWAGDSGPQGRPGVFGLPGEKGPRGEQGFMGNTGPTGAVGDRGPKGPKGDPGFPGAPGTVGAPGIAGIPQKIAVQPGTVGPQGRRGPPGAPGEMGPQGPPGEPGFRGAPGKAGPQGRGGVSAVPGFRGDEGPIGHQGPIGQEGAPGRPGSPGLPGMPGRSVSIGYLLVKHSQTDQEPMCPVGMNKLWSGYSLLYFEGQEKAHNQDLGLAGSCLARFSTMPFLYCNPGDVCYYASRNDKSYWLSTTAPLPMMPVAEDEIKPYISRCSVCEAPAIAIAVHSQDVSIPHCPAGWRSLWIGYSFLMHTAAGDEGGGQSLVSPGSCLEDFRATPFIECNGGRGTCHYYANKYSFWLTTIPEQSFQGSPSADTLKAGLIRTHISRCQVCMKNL

binding result [1]	Binder	also measured
no binding	LLARDFEKNY [Non-sense selection peptide LLARDFEKNY]	–
–	B1	binding result [2]: binds; binding result [3]: no binding; binding result [4]: no binding
no binding	GNTGPTGAV [Truncated peptide GNTGPTGAV]	–
no binding	FMGNTGPTGAV [Elongated peptide FMGNTGPTGAV]	–
–	B2	binding result [5]: binds
no binding (tested: 0-30 ng/ml)	MGQTGPTGAV (also called Deselection 1) [Deselection peptide 1 MGQTGPTGAV]	–
no binding (tested: 0-30 ng/ml)	QGNTGPTGAV (also called Deselection 3) [Deselection peptide 3 QGNTGPTGAV]	–

From patent US20230030529A1 (NORDIC BIOSCIENCE A S, published 2023)
